Reference: US11155793B2, “Phytase variants YeAPPA having improved gastric protein resistance and acid resistance, and increased catalytic efficiency” (priority 2017, dated 2021)

Tests used:
[1] = biological target: phytase YeAPPA variant YeAPPA-E230R (Glu230 into arginine), SEQ ID NO.7 (Yersinia enterocolitica, UniProt D9D7K9, E230R); test: Kinetic parameters of phytase variant YeAPPA-E230R on sodium phytate; conditions: YeAPPA-E230R vs wild phytase, in words
[2] = biological target: phytase YeAPPA variant YeAPPA-E230P (Glu230 into proline), SEQ ID NO.6 (Yersinia enterocolitica, UniProt D9D7K9, E230P); test: Kinetic parameters of phytase variant YeAPPA-E230P on sodium phytate; conditions: YeAPPA-E230P vs wild phytase, in words
Method: According to embodiment of the present invention, the phytase variant YeAPPA-E230P with amino acid sequence as set forth in SEQ ID NO.6 is obtained by mutation at the 230th site of glutamic acid into proline for phytase with amino acid as set forth in SEQ ID NO.1.
The modified gene encoding the phytase variants were inserted into expression vector pET-22b (+), and transformed into E coli.
The effect of pepsin on the activity of the purified mutant phytase was determined by detecting the remained activity after being treated in pH 2 for 2 hours with the different concentrations of pepsin in a mass ratio to phytase ranging from 1/1000 to 1/1. […] After developing, OD is measured at 700 nm to calculate the phytase activity. 1 unit of phytase activity is determined to be the enzyme amount releasing 1 μmol of phosphate for 1 minute. The absolute value of the measured phytase activity may be calculated based on the standard curve of inorganic phosphate in dilution.

[3] = biological target: phytase YeAPPA variant YeAPPA-L162A (Leu162 into alanine), SEQ ID NO.4 (Yersinia enterocolitica, UniProt D9D7K9, L162A); test: Kinetic parameters of phytase variant YeAPPA-L162A on sodium phytate; conditions: YeAPPA-L162A vs wild phytase, in words
[4] = biological target: phytase YeAPPA variant YeAPPA-E230G (Glu230 into glycine), SEQ ID NO.5 (Yersinia enterocolitica, UniProt D9D7K9, E230G); test: Kinetic parameters of phytase variant YeAPPA-E230G on sodium phytate; conditions: YeAPPA-E230G vs wild phytase
[5] = biological target: wild phytase YeAPPA, SEQ ID NO.1 (Yersinia enterocolitica, UniProt D9D7K9); test: Kinetic parameters of wild phytase on sodium phytate (double reciprocal method); assay type: biochemical; conditions: optimal pH 5, 45° C.
[6] = biological target: phytase YeAPPA variant YeAPPA-L162G (Leu162 into glycine), SEQ ID NO.3 (Yersinia enterocolitica, UniProt D9D7K9, L162G); test: Kinetic parameters of phytase variant YeAPPA-L162G on sodium phytate; conditions: YeAPPA-L162G vs wild phytase
[7] = tested on: O=P(O)(O)O[C@H]1[C@H](OP(=O)(O)O)[C@@H](OP(=O)(O)O)[C@H](OP(=O)(O)O)[C@@H](OP(=O)(O)O)[C@H]1OP(=O)(O)O; test: purified protein, by the assay type; conditions: sodium phytate 0.0625-1.5 mmol/L
[8] = other: YeAPPA-E230G, optimal pH 5, 45° C.
[9] = other: YeAPPA-E230P, optimal pH 5, 50° C.
[10] = other: YeAPPA-E230R, optimal pH 4, 45° C.
[11] = other: YeAPPA-L162A, optimal pH 5, 45° C.
[12] = other: YeAPPA-L162G, optimal pH 5, 45° C.

O=P(O)(O)O[C@H]1[C@H](OP(=O)(O)O)[C@@H](OP(=O)(O)O)[C@H](OP(=O)(O)O)[C@@H](OP(=O)(O)O)[C@H]1OP(=O)(O)O [sodium phytate]
reaction rate, conversion rate and catalytic efficiency compared with wild phytase [1]: almost same as those of the wild phytase | reaction rate, conversion rate and catalytic efficiency compared with wild phytase [2]: almost same as those of the wild phytase | reaction rate, conversion rate and catalytic efficiency compared with wild phytase [3]: almost same as those of the wild phytase | Catalytic efficiency Kcat/km relative to wild phytase [4]: 2.5 times | Conversion rate Kcat relative to wild phytase [4]: 2.5 times | Reaction rate Vmax relative to wild phytase [4]: 2.5 times | Kcat/Km [5]: 26 S^−1 mM^−1 | Vmax [5]: 6.4 U mg^−1 | Kcat ([5]; from theoretical molecular weight): 4.9 S^−1 | Catalytic efficiency Kcat/km relative to wild phytase [6]: 1.7 times

phytase YeAPPA variant YeAPPA-E230G (Glu230 into glycine), SEQ ID NO.5 (Yersinia enterocolitica; E230G)
Km [7, 8]: 190 µM | Vmax [7, 8]: 16 µmol/min/mg | kcat [7, 8]: 12 s⁻¹ | kcat/Km [7, 8]: 64000 M⁻¹ s⁻¹

phytase YeAPPA variant YeAPPA-E230P (Glu230 into proline), SEQ ID NO.6 (Yersinia enterocolitica; E230P)
Km [7, 9]: 190 µM | Vmax [7, 9]: 6.7 µmol/min/mg | kcat [7, 9]: 5.1 s⁻¹ | kcat/Km [7, 9]: 26000 M⁻¹ s⁻¹

phytase YeAPPA variant YeAPPA-E230R (Glu230 into arginine), SEQ ID NO.7 (Yersinia enterocolitica; E230R)
Km [7, 10]: 180 µM | Vmax [7, 10]: 6.3 µmol/min/mg | kcat [7, 10]: 4.8 s⁻¹ | kcat/Km [7, 10]: 26000 M⁻¹ s⁻¹

phytase YeAPPA variant YeAPPA-L162A (Leu162 into alanine), SEQ ID NO.4 (Yersinia enterocolitica; L162A)
Km [7, 11]: 190 µM | Vmax [7, 11]: 6.5 µmol/min/mg | kcat [7, 11]: 5 s⁻¹ | kcat/Km [7, 11]: 27000 M⁻¹ s⁻¹

phytase YeAPPA variant YeAPPA-L162G (Leu162 into glycine), SEQ ID NO.3 (Yersinia enterocolitica; L162G)
Km [7, 12]: 190 µM | Vmax [7, 12]: 11 µmol/min/mg | kcat [7, 12]: 8.2 s⁻¹ | kcat/Km [7, 12]: 43000 M⁻¹ s⁻¹
